Here are results for 3 substances from article PMC9891371.

Where “and” joins values, the source holds several entries; their conditions need not be identical. Equal entries are not always repeated.

Experiment [1] concerns the target ZE-fused ferritin, C-terminal fusion (HF-ZE) cage (human). Nature of the experiment: TEM + native gel or EMSA. In general terms: In EMSA bound probe runs differently from free probe, usually more slowly.
The target of experiment [2] is ZE-fused ferritin, N-terminal fusion (ZE-HF) cage (human). The experiment in a line: TEM.
For experiment [3], the target named is ZE-mi3 cage (His tag and ZE fused to the N-terminus of the designed protein cage mi3). The experiment in a line: TEM.
Experiment [4] has the same target. The experiment in a line: native gel or EMSA.
For experiment [5], the target named is ZE-fused ferritin, N-terminal fusion (ZE-HF) cage (human). The experiment in a line: native gel or EMSA.
Experiment [6] deals with C-terminal ZR-fused ferritin (HF-ZR) cage, 15 residue linker (human). The experiment in a line: negative-stain TEM.

Consider “C-terminal ZR-fused ferritin (HF-ZR) cage, 15 residue linker (designed binder)”, for which the stoichiometry N (HF-ZR cages per HF-ZE cage) in experiment [1] was 1 and 3. The stoichiometry N (HF-ZR cages per ZE-HF cage) in experiment [2] is 4 and 6. The substance further registered a stoichiometry N (HF-ZR cages per mi3 cage) in experiment [3] of 12. Further, the stoichiometry N (HF-ZR cages per ZE-mi3 cage) in experiment [4] amounted to 12.
“GFP-ZR (ZR fusion to the GFP C-terminus) (designed binder)” yielded a stoichiometry N (GFPs per ferritin cage) in experiment [5] of 20 to 24.
Take ZE-GFP (ZE-fused GFP) (designed binder): in experiment [6], the stoichiometry N (GFPs observed per cage) was 1 and 3.
